Residue numbers refer to the chain shown, from its start. In names and notes the source's numbering stands.
T1: EsCas13d, nuclease-dead (Eubacterium siraeum, UniProt B0MS50, R295A;H300A;R849A;H854A)
T1 sequence: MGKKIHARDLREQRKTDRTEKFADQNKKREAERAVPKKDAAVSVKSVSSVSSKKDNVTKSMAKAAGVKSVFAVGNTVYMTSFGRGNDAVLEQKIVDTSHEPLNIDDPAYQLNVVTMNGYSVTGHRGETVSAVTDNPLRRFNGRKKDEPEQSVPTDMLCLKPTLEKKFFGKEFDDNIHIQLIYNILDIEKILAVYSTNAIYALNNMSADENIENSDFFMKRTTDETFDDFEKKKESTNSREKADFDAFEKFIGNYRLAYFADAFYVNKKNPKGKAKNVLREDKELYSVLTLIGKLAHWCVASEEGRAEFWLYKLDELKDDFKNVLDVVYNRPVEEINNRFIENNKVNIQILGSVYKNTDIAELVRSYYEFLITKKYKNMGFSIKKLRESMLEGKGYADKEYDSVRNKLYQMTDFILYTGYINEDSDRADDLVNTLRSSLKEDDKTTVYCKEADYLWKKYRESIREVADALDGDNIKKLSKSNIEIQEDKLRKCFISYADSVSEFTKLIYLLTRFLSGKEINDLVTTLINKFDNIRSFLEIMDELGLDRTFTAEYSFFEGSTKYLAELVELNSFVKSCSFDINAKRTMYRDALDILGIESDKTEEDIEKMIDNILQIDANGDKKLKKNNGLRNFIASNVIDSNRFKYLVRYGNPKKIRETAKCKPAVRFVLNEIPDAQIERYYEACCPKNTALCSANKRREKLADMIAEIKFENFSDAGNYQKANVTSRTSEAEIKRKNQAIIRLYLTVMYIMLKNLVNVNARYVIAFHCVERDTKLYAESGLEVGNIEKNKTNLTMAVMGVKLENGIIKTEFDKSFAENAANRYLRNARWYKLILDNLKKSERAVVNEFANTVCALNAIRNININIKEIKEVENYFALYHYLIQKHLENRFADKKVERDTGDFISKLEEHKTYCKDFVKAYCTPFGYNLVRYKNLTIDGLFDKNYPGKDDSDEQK

B1: target 1 MT 5'PFS UUG 3'PFS UCU (mixed)
RNA 1: CACCCGUGCAAAAAUGCAGGGGUCUAAAACUGAGCGGAUAACCUCUCUAUGG
RNA 2: GGGAAUGGAUCCACAUCUACGAAUUCUUGCCAUAGAGAGGUUAUCCGCUCAUCUAGAUCGGAAGAGCACACGU
B2: target 1 MT 5'PFS GAC 3'PFS UGA (mixed)
RNA 1: B1 RNA 1
RNA 2: B1 RNA 2 with U27G, U28A, G29C, C53G, U54A
B3: target 1 MT 5'PFS GUC 3'PFS CCU (mixed)
RNA 1: B1 RNA 1
RNA 2: B1 RNA 2 with U27G, G29C, U52C
B4: target 1 MT 5'PFS GUC 3'PFS UGU (mixed)
RNA 1: B1 RNA 1
RNA 2: B1 RNA 2 with U27G, G29C, C53G
B5: target 1 MT 5'PFS GUG 3'PFS UGU (mixed)
RNA 1: B1 RNA 1
RNA 2: B1 RNA 2 with U27G, C53G
B6: target 1 MT 5'PFS GAG 3'PFS AUU (mixed)
RNA 1: B1 RNA 1
RNA 2: B1 RNA 2 with U27G, U28A, U52A, C53U
B7: target 1 MT 5'PFS GUC 3'PFS UGA (mixed)
RNA 1: B1 RNA 1
RNA 2: B1 RNA 2 with U27G, G29C, C53G, U54A
B8: target 1 MT 5'PFS AUG 3'PFS CAC (mixed)
RNA 1: B1 RNA 1
RNA 2: B1 RNA 2 with U27A, U52C, C53A, U54C
B9: target 1 MT 5'PFS UUA 3'PFS ACC (mixed)
RNA 1: B1 RNA 1
RNA 2: B1 RNA 2 with G29A, U52A, U54C
B10: target 1 MT 5'PFS GAC 3'PFS CCU (mixed)
RNA 1: B1 RNA 1
RNA 2: B1 RNA 2 with U27G, U28A, G29C, U52C
B11: target 1 MT 5'PFS UUU 3'PFS AUC (mixed)
RNA 1: B1 RNA 1
RNA 2: B1 RNA 2 with G29U, U52A, C53U, U54C
B12: target 1 MT 5'PFS AGC 3'PFS AGG (mixed)
RNA 1: B1 RNA 1
RNA 2: B1 RNA 2 with U27A, U28G, G29C, U52A, C53G, U54G
B13: target 1 MT 5'PFS UUA 3'PFS ACG (mixed)
RNA 1: B1 RNA 1
RNA 2: B1 RNA 2 with G29A, U52A, U54G
B14: target 1 MT 5'PFS UUG 3'PFS UCG (mixed)
RNA 1: B1 RNA 1
RNA 2: B1 RNA 2 with U54G
B15: target 1 C4G,G15A (mixed)
RNA 1: B1 RNA 1
RNA 2: B1 RNA 2 with U27G, G29A, G37A, C48G, U52C, U54G
B16: target 1 MT 5'PFS GUG 3'PFS UGG (mixed)
RNA 1: B1 RNA 1
RNA 2: B1 RNA 2 with U27G, C53G, U54G
B17: target 1 MT 5'PFS GGA 3'PFS CCU (mixed)
RNA 1: B1 RNA 1
RNA 2: B1 RNA 2 with U27G, U28G, G29A, U52C
B18: target 1 MT 5'PFS GUG 3'PFS UGA (mixed)
RNA 1: B1 RNA 1
RNA 2: B1 RNA 2 with U27G, C53G, U54A
B19: target 1 MT 5'PFS GUC 3'PFS UGG (mixed)
RNA 1: B1 RNA 1
RNA 2: B1 RNA 2 with U27G, G29C, C53G, U54G
B20: target 1 MT 5'PFS GCG 3'PFS AGC (mixed)
RNA 1: B1 RNA 1
RNA 2: B1 RNA 2 with U27G, U28C, U52A, C53G, U54C
B21: target 1 C2A,A14C (mixed)
RNA 1: B1 RNA 1
RNA 2: B1 RNA 2 with U27G, G29A, A38C, C50A, U52C, U54G
B22: target 1 MT 5'PFS GUG 3'PFS UGC (mixed)
RNA 1: B1 RNA 1
RNA 2: B1 RNA 2 with U27G, C53G, U54C
B23: target 1 MT 5'PFS GGC 3'PFS CAC (mixed)
RNA 1: B1 RNA 1
RNA 2: B1 RNA 2 with U27G, U28G, G29C, U52C, C53A, U54C
B24: target 1 MT 5'PFS GGA 3'PFS CCG (mixed)
RNA 1: B1 RNA 1
RNA 2: B1 RNA 2 with U27G, U28G, G29A, U52C, U54G
B25: target 1 MT 5'PFS GAC 3'PFS UGU (mixed)
RNA 1: B1 RNA 1
RNA 2: B1 RNA 2 with U27G, U28A, G29C, C53G
B26: target 1 MT 5'PFS GUC 3'PFS UGC (mixed)
RNA 1: B1 RNA 1
RNA 2: B1 RNA 2 with U27G, G29C, C53G, U54C
B27: target 1 MT 5'PFS UUA 3'PFS UCG (mixed)
RNA 1: B1 RNA 1
RNA 2: B1 RNA 2 with G29A, U54G
B28: target 1 C2U,A9G (mixed)
RNA 1: B1 RNA 1
RNA 2: B1 RNA 2 with U27G, G29A, A43G, C50U, U52C, U54G
B29: target 1 MT 5'PFS GGC 3'PFS CAG (mixed)
RNA 1: B1 RNA 1
RNA 2: B1 RNA 2 with U27G, U28G, G29C, U52C, C53A, U54G
B30: target 1 MT 5'PFS UUA 3'PFS UCA (mixed)
RNA 1: B1 RNA 1
RNA 2: B1 RNA 2 with G29A, U54A
B31: target 1 MT 5'PFS UUA 3'PFS ACA (mixed)
RNA 1: B1 RNA 1
RNA 2: B1 RNA 2 with G29A, U52A, U54A
B32: target 1 MT 5'PFS GCG 3'PFS AGA (mixed)
RNA 1: B1 RNA 1
RNA 2: B1 RNA 2 with U27G, U28C, U52A, C53G, U54A
B33: target 1 insG 3' of 9,insU 3' of 1 (mixed)
RNA 1: B1 RNA 1
RNA 2: GGGAAUGGAUCCACAUCUACGAAUUCGUACCAUAGAGAGGUUAGUCCGCUCAUCCGAGAUCGGAAGAGCACACGU
B34: target 1 MT 5'PFS GGC 3'PFS AAG (mixed)
RNA 1: B1 RNA 1
RNA 2: B1 RNA 2 with U27G, U28G, G29C, U52A, C53A, U54G
B35: target 1 MT 5'PFS CAG 3'PFS CUG (mixed)
RNA 1: B1 RNA 1
RNA 2: B1 RNA 2 with U27C, U28A, U52C, C53U, U54G
B36: target 1 MT 5'PFS CCU 3'PFS ACC (mixed)
RNA 1: B1 RNA 1
RNA 2: B1 RNA 2 with U27C, U28C, G29U, U52A, U54C
B37: target 1 MT 5'PFS GAG 3'PFS AUC (mixed)
RNA 1: B1 RNA 1
RNA 2: B1 RNA 2 with U27G, U28A, U52A, C53U, U54C
B38: target 1 MT 5'PFS GAG 3'PFS AUA (mixed)
RNA 1: B1 RNA 1
RNA 2: B1 RNA 2 with U27G, U28A, U52A, C53U, U54A
B39: target 1 MT 5'PFS CCA 3'PFS AGU (mixed)
RNA 1: B1 RNA 1
RNA 2: B1 RNA 2 with U27C, U28C, G29A, U52A, C53G
B40: target 1 insU 3' of 22,insC 3' of 12 (mixed)
RNA 1: B1 RNA 1
RNA 2: GGGAAUGGAUCCACAUCUACGAAUUCGUACUCAUAGAGAGGCUUAUCCGCUCACCGAGAUCGGAAGAGCACACGU

biological target: T1, EsCas13d, nuclease-dead; experiment: crRNA (strand 1, pre-loaded); Mg2+; 40 mM Tris-HCl pH 7.5, 150 mM NaCl, 6 mM MgCl2, 1 mM DTT, 0.1% Tween-20, 0.2 mg/ml BSA; 25 C; 10 min per concentration, then washed; conditions: tags: His6-TwinStrep-SUMO cleaved; N-terminal SNAP kept (SNAP-Surface 488); label: 3' end held by stalled T7 RNA polymerase

How did the Kd turn out when B1 was run?
Its Kd is 20.9 ± 3.9 nM.

With B2 as the binder, how does the Kd read?
Its Kd is roughly 27.2 nM.

With B3 as the binder, how does the Kd read?
The Kd was 15.3 ± 2.6 nM.

Which Kd does the source give for B4 here?
Its Kd is 21.5 ± 5 nM.

How did the Kd turn out when B5 was run?
Its Kd is 27.1 ± 2.4 nM.

With B6 as the binder, how does the Kd read?
Its Kd is 36 ± 11 nM.

B7 was tested. Which Kd did it give?
Its Kd is 14.7 ± 3.4 nM.

How did the Kd turn out when B8 was run?
The Kd was roughly 29.5 nM.

With B9 as the binder, how does the Kd read?
The Kd was roughly 22.5 nM.

B10 was tested. Which Kd did it give?
Its Kd is roughly 14 nM.

Which Kd does the source give for B11 here?
Its Kd is 55 ± 18 nM.

With B12 as the binder, how does the Kd read?
Its Kd is roughly 60 nM.

How did the Kd turn out when B13 was run?
The Kd was 21.8 ± 4.7 nM.

How did the Kd turn out when B14 was run?
The Kd was 58.5 ± 22.5 nM.

Which Kd does the source give for B15 here?
Its Kd is 13.2 ± 1.2 nM.

With B16 as the binder, how does the Kd read?
Its Kd is 110 ± 19.5 nM.

How did the Kd turn out when B17 was run?
The Kd was 10.3 ± 2.85 nM.

How did the Kd turn out when B18 was run?
Its Kd is 14.9 ± 1.15 nM.

With B19 as the binder, how does the Kd read?
The Kd was 65 ± 15.5 nM.

For B20, which Kd is on record?
Its Kd is 37 ± 11 nM.

For B21, which Kd is on record?
Its Kd is 48.7 ± 3.1 nM.

For B22, which Kd is on record?
The Kd was 9.4 ± 0.45 nM.

With B23 as the binder, how does the Kd read?
The Kd was roughly 17 nM.

How did the Kd turn out when B24 was run?
Its Kd is 28.5 ± 7.5 nM.

With B25 as the binder, how does the Kd read?
Its Kd is 41.5 ± 12.5 nM.

With B26 as the binder, how does the Kd read?
Its Kd is 13.2 ± 2.95 nM.

With B27 as the binder, how does the Kd read?
Its Kd is 13.6 ± 2.85 nM.

B28 was tested. Which Kd did it give?
The Kd was 15.4 ± 1.4 nM.

How did the Kd turn out when B29 was run?
Its Kd is 25.5 ± 8.5 nM.

Which Kd does the source give for B30 here?
The Kd was 25 ± 6.5 nM.

With B31 as the binder, how does the Kd read?
Its Kd is 37 ± 13 nM.

How did the Kd turn out when B32 was run?
The Kd was 26.4 ± 4.8 nM.

How did the Kd turn out when B33 was run?
Its Kd is 23.3 ± 3.4 nM.

Which Kd does the source give for B34 here?
The Kd was 36 ± 10 nM.

For B35, which Kd is on record?
The Kd was 19 ± 7.5 nM.

For B36, which Kd is on record?
The Kd was roughly 14 nM.

For B37, which Kd is on record?
The Kd was roughly 60 nM.

With B38 as the binder, how does the Kd read?
The Kd was 34 ± 8.5 nM.

How did the Kd turn out when B39 was run?
Its Kd is 14 ± 5.9 nM.

Which Kd does the source give for B40 here?
Its Kd is 92 ± 34 nM.

— paper PMC10786891, “Massively parallel profiling of RNA-targeting CRISPR-Cas13d”
